# Reference: IntAct's records for PubMed 14507921
# Biological target: ANTXR1, Q9H6X2-2
# Sequence (Q9H6X2 other isoform, or with tags, fused parts or gaps): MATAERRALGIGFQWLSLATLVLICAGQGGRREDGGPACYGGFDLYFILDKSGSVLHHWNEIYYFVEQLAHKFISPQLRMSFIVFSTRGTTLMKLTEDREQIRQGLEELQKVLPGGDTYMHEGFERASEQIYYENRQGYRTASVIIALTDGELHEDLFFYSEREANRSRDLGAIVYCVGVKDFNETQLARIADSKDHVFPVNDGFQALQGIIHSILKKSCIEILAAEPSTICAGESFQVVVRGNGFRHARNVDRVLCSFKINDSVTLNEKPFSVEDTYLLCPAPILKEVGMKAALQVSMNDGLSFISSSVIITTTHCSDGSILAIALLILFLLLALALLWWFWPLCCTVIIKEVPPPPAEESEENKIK
substance,measurement,value
Protective antigen (Bacillus anthracis) (from UniProt P13423) D712N,effect of a mutation on the interaction,decreasing interaction
